The values below come from paper PMC4728126, “Stable G protein-effector complexes in striatal neurons: mechanism of assembly and role in neurotransmitter signaling” (eLife, 2015).

This experiment addresses adenylyl cyclase type 5 (mouse (endogenous in striatum)) (UniProt P84309).

Sequence of Gαs-GTPγS (P63092 whole entry): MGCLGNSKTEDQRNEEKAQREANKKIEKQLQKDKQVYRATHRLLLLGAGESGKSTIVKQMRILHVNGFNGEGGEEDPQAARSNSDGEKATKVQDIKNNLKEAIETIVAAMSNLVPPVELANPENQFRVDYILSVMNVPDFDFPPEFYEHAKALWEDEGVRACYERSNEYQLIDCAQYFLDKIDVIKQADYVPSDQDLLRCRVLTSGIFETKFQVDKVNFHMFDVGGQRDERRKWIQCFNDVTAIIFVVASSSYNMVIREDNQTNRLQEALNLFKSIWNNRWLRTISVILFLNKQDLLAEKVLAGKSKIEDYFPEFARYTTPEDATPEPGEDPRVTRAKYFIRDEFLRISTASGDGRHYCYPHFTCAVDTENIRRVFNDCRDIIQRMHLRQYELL
Sequence of adenylyl cyclase type 5 (mouse (endogenous in striatum)) (P84309 whole entry): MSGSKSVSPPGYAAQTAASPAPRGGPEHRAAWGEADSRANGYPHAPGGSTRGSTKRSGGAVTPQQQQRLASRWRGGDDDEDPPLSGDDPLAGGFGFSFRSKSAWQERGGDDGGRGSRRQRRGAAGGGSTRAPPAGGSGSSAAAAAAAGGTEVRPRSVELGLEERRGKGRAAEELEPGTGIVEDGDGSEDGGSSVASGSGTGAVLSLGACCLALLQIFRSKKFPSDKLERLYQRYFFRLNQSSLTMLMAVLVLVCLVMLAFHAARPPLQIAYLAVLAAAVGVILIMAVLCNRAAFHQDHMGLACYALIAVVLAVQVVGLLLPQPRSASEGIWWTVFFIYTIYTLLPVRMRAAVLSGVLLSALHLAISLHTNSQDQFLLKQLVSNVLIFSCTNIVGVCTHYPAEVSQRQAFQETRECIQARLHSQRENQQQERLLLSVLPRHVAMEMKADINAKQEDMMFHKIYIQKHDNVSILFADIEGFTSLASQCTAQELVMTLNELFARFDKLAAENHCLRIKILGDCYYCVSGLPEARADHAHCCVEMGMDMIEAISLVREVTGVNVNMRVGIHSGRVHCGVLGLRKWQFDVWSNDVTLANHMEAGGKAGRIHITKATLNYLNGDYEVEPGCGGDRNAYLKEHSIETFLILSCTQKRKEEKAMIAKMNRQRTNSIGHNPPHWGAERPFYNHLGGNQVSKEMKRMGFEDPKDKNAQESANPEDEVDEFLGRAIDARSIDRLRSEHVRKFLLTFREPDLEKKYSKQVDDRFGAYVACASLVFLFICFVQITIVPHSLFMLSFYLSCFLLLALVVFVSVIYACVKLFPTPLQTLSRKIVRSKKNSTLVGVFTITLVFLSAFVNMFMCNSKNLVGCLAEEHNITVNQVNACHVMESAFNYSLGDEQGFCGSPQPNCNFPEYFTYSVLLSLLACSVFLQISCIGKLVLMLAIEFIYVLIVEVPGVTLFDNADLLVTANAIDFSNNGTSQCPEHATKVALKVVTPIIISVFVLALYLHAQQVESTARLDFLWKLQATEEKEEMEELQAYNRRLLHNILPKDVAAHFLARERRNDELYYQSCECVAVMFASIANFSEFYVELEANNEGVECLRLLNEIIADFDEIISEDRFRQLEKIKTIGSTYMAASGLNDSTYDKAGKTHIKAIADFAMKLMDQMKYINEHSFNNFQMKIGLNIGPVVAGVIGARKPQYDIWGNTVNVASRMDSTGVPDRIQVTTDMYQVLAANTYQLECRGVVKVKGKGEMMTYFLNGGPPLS

For “Gαs-GTPγS (from UniProt P63092 1-394) (natural protein)”, the EC50 of Gαs-GTPγS-mediated activation of adenylyl cyclase in striatal membranes, PhLP1-treated reaction (0.5 μM purified PhLP1) was found to be 22.3 nM and the EC50 of Gαs-GTPγS-mediated activation of adenylyl cyclase in striatal membranes, control reaction is 16.2 nM.
